Experimental data from patent US8465945B2, “Method for production and use of mite group 1 proteins” (Merck Patent GmbH, priority 1999, dated 2013).

System: IgE from mite-allergic dog sera
Assay: ELISA, binding of IgE from dog sera to coated Der f 1 proteins or mite extracts, detected with FcεR1α-biotin

B1: PDerf1303b: Recombinant Der f 1 expressed by P. pastoris HCY215 from nDerf1909b (pro-form, SEQ ID NO:29); actually secreted as mature form (protein, listed as Dermatophagoides farinae)
chain: RPASIKTFEEFKKAFNKNYATVEEEEVARKNFLESLKYVEANKGAINHLSDLSLDEFKNRYLMSAEAFEQLKTQFDLNAETSACRINSVNVPSELDLRSLRTVTPIRMQGGCGSCWAFSGVAATESAYLAYRNTSLDLSEQELVDCASQHGCHGDTIPRGIEYIQQNGVVEERSYPYVAREQRCRRPNSQHYGISNYCQIYPPDVKQIREALTQTHTAIAVIIGIKDLRAFQHYDGRTIIQHDNGYQPNYHAVNIVGYGSTQGDDYWIVRNSWDTTWGDSGYGYFQAGNNLMMIEQYPYVVIM
Q: What does the source list for B1?
A: OD, bound IgE (Assay Number 1, serum dog pool): 364 OD multiplied by 1000; OD, bound IgE (Assay Number 1, serum dog-1): 21 OD multiplied by 1000; OD, bound IgE (Assay Number 1, serum dog-2): 1490 OD multiplied by 1000; OD, bound IgE (Assay Number 1, serum dog-3): 2499 OD multiplied by 1000; OD, bound IgE (Assay Number 2, dog sera pool A 146): 199 OD multiplied by 1000; OD, bound IgE (Assay Number 2, dog sera pool KS338): 27 OD multiplied by 1000; reactivity: share of dog serum samples reactive to native Der f 1 proteins that are also reactive to the recombinant protein (Table 1, 3 dog serum samples): 100%
